Assay results published in patent USRE41461E1, “Purification, composition and specificity of Heparinase I, II, and III from Flavobacterium heparinum” (Massachusetts Institute of Technology, priority 1992, dated 2010).
Read-outs that look alike come from different tables or passages of the source.

B1: Heparin lyase III: heparin lyase III (heparitinase EC 4.2.2.8) purified to homogeneity from Flavobacterium heparinum (protein, UniProt Q59289 25-659, looked up)
Heparin-sulfate lyase: QSSSITRKDFDHINLEYSGLEKVNKAVAAGNYDDAAKALLAYYREKSKAREPDFSNAEKPADIRQPIDKVTREMADKALVHQFQPHKGYGYFDYGKDINWQMWPVKDNEVRWQLHRVKWWQAMALVYHATGDEKYAREWVYQYSDWARKNPLGLSQDNDKFVWRPLEVSDRVQSLPPTFSLFVNSPAFTPAFLMEFLNSYHQQADYLSTHYAEQGNHRLFEAQRNLFAGVSFPEFKDSPRWRQTGISVLNTEIKKQVYADGMQFELSPIYHVAAIDIFLKAYGSAKRVNLEKEFPQSYVQTVENMIMALISISLPDYNTPMFGDSWITDKNFRMAQFASWARVFPANQAIKYFATDGKQGKAPNFLSKALSNAGFYTFRSGWDKNATVMVLKASPPGEFHAQPDNGTFELFIKGRNFTPDAGVFVYSGDEAIMKLRNWYRQTRIHSTLTLDNQNMVITKARQNKWETGNNLDVLTYTNPSYPNLDHQRSVLFINKKYFLVIDRAIGEATGNLGVHWQLKEDSNPVFDKTKNRVYTTYRDGNNLMIQSLNADRTSLNEEEGKVSYVYNKELKRPAFVFEKPKKNAGTQNFVSIVYPYDGQKAPEISIRENKGNDFEKGKLNLTLTINGKQQLVLVP
B2: Heparin lyase II: heparin lyase II (heparinase II, no EC number) purified to homogeneity from Flavobacterium heparinum (protein, UniProt C6XZB6 26-772, looked up)
Heparin and heparin-sulfate …: QTKADVVWKDVDGVSMPIPPKTHPRLYLREQQVPDLKNRMNDPKLKKVWADMIKMQEDWKPADIPEVKDFRFYFNQKGLTVRVELMALNYLMTKDPKVGREAITSIIDTLETATFKPAGDISRGIGLFMVTGAIVYDWCYDQLKPEEKTRFVKAFVRLAKMLECGYPPVKDKSIVGHASEWMIMRDLLSVGIAIYDEFPEMYNLAAGRFFKEHLVARNWFYPSHNYHQGMSYLNVRFTNDLFALWILDRMGAGNVFNPGQQFILYDAIYKRRPDGQILAGGDVDYSRKKPKYYTMPALLAGSYYKDEYLNYEFLKDPNVEPHCKLFEFLWRDTQLGSRKPDDLPLSRYSGSPFGWMIARTGWGPESVIAEMKVNEYSFLNHQHQDAGAFQIYYKGPLAIDAGSYTGSSGGYNSPHNKNFFKRTIAHNSLLIYDPKETFSSSGYGGSDHTDFAANDGGQRLPGKGWIAPRDLKEMLAGDFRTGKILAQGFGPDNQTPDYTYLKGDITAAYSAKVKEVKRSFLFLNLKDAKVPAAMIVFDKVVASNPDFKKFWLLHSIEQPEIKGNQITIKRTKNGDSGMLVNTALLPDAANSNITSIGGKGKDFWVFGTNYTNDPKPGTDEALERGEWRVEITPKKAAAEDYYLNVIQIADNTQQKLHEVKRIDGDKVVGVQLADRIVTFSKTSETVDRPFGFSVVGKGTFKFVMTDLLPGTWQVLKDGKILYPALSAKGDDGALYFEGTEGTYRFLR

Assays:
[1] = Rice and Lindhardt (1989), cited from earlier work
[2] = Stability toward storage, freeze thawing and lyophilization; assay type: physicochemical
Description: […] […] These lyase solutions were then divided into 3 equal aliquots, and one of each was subjected to either freeze thawing, lyophilization, or retained as a control in an ice bath. The activities of heparin lyases I-III were determined in the presence and absence of excipients after: 1) brief storage at 4° C.; 2) freezing at −70° C. and thawing; and 3) −70° C. freezing, lyophilization, and reconstituting with an equal volume of cold water.

[3] = Heparin lyase activity assay (change of absorbance at 232 nm), heparin as substrate; assay type: biochemical, porcine
Description: The spectrophotometer was adjusted to the optimum temperature of the particular lyase being assayed. […] A measured quantity of lyase was added, bringing the final volume to 400 μl and the cuvette was gently mixed. The microcuvette was then immediately returned to the spectrophotometer and the change of absorbance at 232 nm was measured at 10 seconds intervals over 3 min. […] The specific activity was then calculated by dividing the micromoles of product produced per minute by the milligrams of protein in the cuvette. […] G., and Linhardt, R. J. (1989) Carbohydr. Res. 190, 219-233. Protein concentration was measured by the Bradford assay, Bradford, M. M. (1976) Anal. Biochem. 72, 248-254, based on a bovine serum albumin standard curve. […] The activities of each lyase (I acting on heparin, II acting on both heparin and heparan sulfate, and III acting on heparan sulfate) were then determined at different pH values. The buffer giving optimum activity for each heparin lyase was selected by testing buffers with buffering capacity near the pH optima calculated in the previous experiments. These buffers were: Tris-HCl, sodium phosphate, HEPES, MOPS, TES, and BTP-CHl. […] The heparin lyase assay solutions were made by diluting enzyme in 50 mM sodium phosphate buffer adjusted to the appropriate pH as previously described. Heparin lyase activity was determined in each buffer. Activity was assayed both immediately after addition to each buffer and following incubation for 24 h at 37° C. The salt concentration for optimum activity was investigated. Sodium chloride, potassium chloride, and sodium and potassium acetate were used to differentiate between ionic strength and specific ion affects. […] The temperature was adjusted in a temperature-regulated spectrophotometer and equilibrated for 10 min before the assay was started. Michaelis-Menten constants were determined using the optimized conditions. The final absorbance value for total depolymerization was divided by 20 to find a value that represented 5% reaction completion. The purified lyase preparations were diluted so that 5% of total depolymerization would be reached only at the end of a 3-min assay. The reaction velocities at specific molar concentrations for each lyase and their substrates were used for kinetic analysis using EZ-FIT hyperbolic curve-fitting program of […]. (1988) Anal. Biochem. 174, 437-447). Substrate solutions were prepared from 50 mg/ml heparin and 40 mg/ml for heparan sulfate stock solutions. […] The amount of purified lyase used was sufficient for complete depolymerization of heparin or heparan sulfate substrates within 30 min. The initial rate of depolymerization of each polysaccharide was measured, the reaction was then continued for 24 h, and the final level of polysaccharide depolymerization was assessed by measuring the final absorbance at 232 nm and expressed as percent activity.

| Molecule | Vmax (reported) [1] [µmol/min] | Km ([1]; read-out: apparent Km (reported)) [µM] | activity retained ([2]; absence of excipient, stored at 4° C.) | retention of activity ([2]; addition of 5% lactose) | activity lost ([2]; on freeze-thawing or freeze-drying) | increase of recovered activity ([2]; presence of BSA) | activity retained ([2]; under all storage conditions) | Unit/mg (specific activity) ([3]; final GPC-HPLC purification step, acting on heparin) [Unit/mg] | average number of sites acted at in the heparin polymer ([3]; final level of depolymerization, 24 h) [sites] | initial activity in six buffers (Tris-HCl, sodium phosphate, HEPES, MOPS, TES, BTP-HCl) ([3]; heparin, 50 mM buffer at optimum pH) | temperature for maximum activity ([3]; heparin, 50 mM sodium phosphate at optimum pH, 15-55° C.) [°C] | Km ([3]; heparin, I: 30° C., pH 7.15, 100 mM sodium chloride, II: 35° C., pH 7.3, value ± standard error, read-out: Km(app)) [µM] | optimum temperature (summary) ([3]; heparin, activity greater at higher temperatures but stability reduced) [°C] | Vmax ([3]; heparin, optimized conditions, value ± standard error) [μmol/min mg protein] | pH optimum for activity ([3]; on heparin) | specific activity ([3]; purified lyase, toward heparin) [units/mg] | Km (Michelis-Menton constant, summary) ([3]; with heparin) | V(max) (summary) ([3]; with heparin) | Km ([3]; with heparin, read-out: Km (Michelis-Menton constant, summary)) [µM] |
| --- | --- | --- | --- | --- | --- | --- | --- | --- | --- | --- | --- | --- | --- | --- | --- | --- | --- | --- | --- |
| B1 | 0.00357 | 5.7 | retains most of its activity | destabilizes | 70-80% | 20-25% |  |  |  |  |  |  |  |  |  |  |  |  |  |
| B2 |  |  |  |  |  |  | greater than 75% | 19 | 14 | remarkably similar in all six buffers | 40 | 57.7 ± 6.56 | 35 | 16.7 ± 0.555 | 7.3 | 19 | 0,129 mg/ml | 15.04 | 9.23 |
